Results published in US20150125397A1, “DUAL SPECIFIC BINDING PROTEINS DIRECTED AGAINST IMMUNE CELL RECEPTORS AND AUTOANTIGENS” (ABBVIE INC., priority 2013, published 2015).
Entries after “also recorded” stand apart in the source; their conditions may differ.

How the values were obtained:
Type in all cases: cell-based, mouse
[1] = system: Primary murine B cells; experiment: CFSE dilution / Sytox Blue FACS of primary murine B cells; conditions: 72 hours, FIG. 3
Description: Primary murine B cells were purified by positive selection as described above. For cultures >48 hours old, proliferation was quantified by carboxyfluorescein diacetate, succinimidyl ester (CFSE) dilution and cell death by TO-PRO-3 binding. To label the cells with CFSE, the cells were first washed 2 times with PBS. Next, the stock of CFSE was diluted to 10 μM in PBS and the cells were brought to 1×10^7 cells/ml. The cells were mixed at a 1:1 ratio with 10 μM CFSE and mixed gently for 2 minutes. The CFSE labeling reaction was stopped by adding heat inactivated fetal calf serum equal in volume to the starting volume for the cell suspension. […] Proliferation was measured by fluorophore dilution at 60-72 hours by flow cytometry. […]
Primary murine B cells were labeled and prepared as in Example 2.7 and stimulated with either media alone, […] of TLR9 ligand CpG oligodeoxynucleotide (ODN) 1826, […] of the mouse anti-chromatin autoantibody PL2-3 or […] DVD3759 in the presence or absence of […] of the B cell survival factor BLyS. After 72 hours, cells were stained with 1 μM of the cell permeable DNA stain Sytox Blue and analyzed by fluorescence activated cell sorting (FACS). Cell division was determined by dilution of CFSE and dead cells were identified by staining with Sytox Blue.

[2] = system: wild type (WT) primary B cells; experiment: CFSE dilution / TO-PRO-3 FACS of wild type B cells (Example 4); conditions: 72 hours, FIG. 4
Description: Primary murine B cells were purified by positive selection as described above. For cultures >48 hours old, proliferation was quantified by carboxyfluorescein diacetate, succinimidyl ester (CFSE) dilution and cell death by TO-PRO-3 binding. To label the cells with CFSE, the cells were first washed 2 times with PBS. Next, the stock of CFSE was diluted to 10 μM in PBS and the cells were brought to 1×10^7 cells/ml. The cells were mixed at a 1:1 ratio with 10 μM CFSE and mixed gently for 2 minutes. The CFSE labeling reaction was stopped by adding heat inactivated fetal calf serum equal in volume to the starting volume for the cell suspension. The cells were washed two times with media and resuspended to 1-4×10^6 cells/ml and were incubated with 0.5 μg/ml DVD-Ig proteins (DVD3759 and DVD3754) or antibodies, with or with out 0.05 μg/ml Blys. Proliferation was measured by fluorophore dilution at 60-72 hours by flow cytometry. […]
To determine if IRAK4 kinase activity is required for activation and/or death induced TLR9 via DVD3759, either wild type (WT), IRAK2 knock out (IRAK2KO) or IRAK 4 knock-in (IRAK4 KI) primary B cells were purified and tested in a method similar to Example 2.7. […] After 72 hours, cells were stained with 500 nM of the cell permeable DNA stain TOP-RO-3 and analyzed by FACS. Cell division was determined by dilution of CFSE and dead cells were identified by staining with TOP-RO-3.

[3] = system: RF Tlr9−/− or BALB/c Tlr9−/− B cells; experiment: Proliferation of B220+ B cells, Tlr9-/-; conditions: 3H-thymidine 24 hours, CFSE 72 hours; FIG. 9
Description: (§1) Proliferation of B220+ B cells: B cells were purified by magnetic bead separation using CD45R/B220-conjugated magnetic particles (BD Biosciences, San Jose, Calif., USA) and stimulated as described previously (Nundel et al. (2013) J. Leukoc. Biol. 94:865-875) with 15 μg/ml goat anti-mouse IgM F(ab′)2 (Jackson ImmunoResearch), ODN1826 (CpG; Idera Pharmaceuticals), anti-DNA-mAb (Leadbetter et al. (2002) Nature 416:603-607), or DVD-Ig proteins (1 μg/ml). B cell proliferation was assessed by ^3H-thymidine (Amersham Biosciences, Piscataway, N.J., USA) incorporation at 24 hours post-stimulation. For long-term proliferation assays, B220-purified B cells were labeled with a final concentration of 2.5 μM CFSE (Life Technologies) in PBS for 2 minutes. The cells were then washed and cultured for 72 hours in the presence of BLyS (Human Genome Sciences).
(§2) FACS for B cells: Multicolor flow cytometry analysis was carried out using a BD LSR II with DIVA software (BD Biosciences). Analysis was conducted with FlowJo software (Tree Star, Ashland, Oreg., USA) Immature and mature B cell ratios were determined using Pacific Blue-B220 and APC-AA4.1 (eBioscience). Dead cells and debris were excluded by forward- and side-scatter. Proliferation was assessed by CFSE dilution. Cell death was ascertained using the DNA stain TO-PRO-3 (Life Technologies) at a final concentration of 20 nM.

[4] = system: Dnase2−/− Ifnar1−/− DKO B cells; experiment: 3H-thymidine incorporation of B220-purified B cells, DKO; conditions: 24 hours, FIG. 10C
From the text: Mice: RF and Tlr-9^−/− mice have been described previously (Uccellini et al. (2008) J. Immunol. 181:5875-5884), The DNase II-deficient mice on a C57BL/6 background were kindly provided by Dr. S, Nagata and obtained from the RIKEN Institute. […] and Unc93B1-deficient mice were obtained from Jackson Lab. DnaseII^−/− Ifnar1^−/− (Het), DnaseII^−/− Ifnar1−/− (DKO), and DnaseII^−/− Unc93b1^−/− (TKO), were bred at UMMS. All mice were maintained at the Department of Animal Medicine of the University of Massachusetts Medical School in accordance with the regulations of the American Association for the Accreditation of Laboratory Animal Care.
as §1, with “The cells were then washed and cultured for 72 hours in the presence of BLyS (Human Genome Sciences).” left out

[5] = system: BALB/c B cells; experiment: Proliferation of B220+ B cells, non-Tg BALB/c; conditions: 3H-thymidine 24 hours, CFSE 72 hours; FIG. 8D, 9
Description: as §1, §2

[6] = system: RF B cells; experiment: Proliferation of B220+ B cells, RF (AM14)
Description: as §1, §2

Molecule | effect of addition of BLyS on cell death ([1]; 0.05 mg/ml BLyS) | cell division (CFSE dilution) and cell death (Sytox Blue) ([1]; absence of BLyS) | effect of addition of BLyS on cell death ([2]; 0.05 μg/ml BLyS) | cell division (CFSE dilution) and cell death (TO-PRO-3) ([2]; 0.5 μg/ml) | proliferation of Tlr9−/− B cells [3] | response of DKO B cells [4] | activation / proliferation of non-Tg BALB/c B cells [5] | level of activation compared with anti-DNA mAb ([6]; FIG. 9A,B) | activation / proliferation of RF B cells ([6]; Tlr9+/+, 3H-thymidine 24 hours, CFSE 72 hours, FIG. 9)
DVD3759: DVD-Ig: VD1 mIgM (B7.6), SL linker, VD2 DNA(PA4); heavy SEQ ID NO 64, light 65 (antibody) heavy: QVQLKESGPGLVKPSLTLSLTCTVSGFSLNGYGVIWVRQPPGKGLEWMGVIWGNGNTNYNSTLKSRLSISRDTSKSQVFLKMNNLQTEDTAMYFCARSENYYSSPGYFAYWGQGTLVTVSSASTKGPEVQLVESGGGLVKPGGSLKLSCVASGFTFSTYAMSWVRQTPTKRLEWVATISRGGVSTYYPDTVKGRFTISRDNAKNTLYLQMSSLRSEDTAMYYCARPPTIVTTWFAYWGQGTLVTVSS light: NTVMTQSPTSMFISVGDRVTMNCKASQNVGSDVDWYQQKTGQSPKLLISGTSNRYTGVPDRFTGSGSGTDFTLTISNMQAEDLAVYYCLQYNYNPTFGAGTKLELKRTVAAPSVFIFPPDVVMTQTPLSLPVSLGDQASISCRSSQSLVHSNGNTYLHWYLQKPGQSPKLLIYKVSNRFSGVPDRFSGSGSGTDFTLKISRVEAEDLGAYFCSQSTHVPYTFGGPTRLEIKR | could be rescued | induced several rounds of division followed by post-proliferative cell death | could be rescued | induced several rounds of division followed by post-proliferative cell death |  |  |  |  | 
DVD3754: DVD-Ig: VD1 DNA(PA4), SL linker, VD2 mIgM (B7.6); heavy SEQ ID NO 54, light 55 (antibody) heavy: EVQLVESGGGLVKPGGSLKLSCVASGFTFSTYAMSWVRQTPTKRLEWVATISRGGVSTYYPDTVKGRFTISRDNAKNTLYLQMSSLRSEDTAMYYCARPPTIVTTWFAYWGQGTLVTVSSASTKGPQVQLKESGPGLVKPSLTLSLTCTVSGFSLNGYGVIWVRQPPGKGLEWMGVIWGNGNTNYNSTLKSRLSISRDTSKSQVFLKMNNLQTEDTAMYFCARSENYYSSPGYFAYWGQGTLVTVSS light: DVVMTQTPLSLPVSLGDQASISCRSSQSLVHSNGNTYLHWYLQKPGQSPKLLIYKVSNRFSGVPDRFSGSGSGTDFTLKISRVEAEDLGAYFCSQSTHVPYTFGGPTRLEIKRTVAAPSVFIFPPNTVMTQSPTSMFISVGDRVTMNCKASQNVGSDVDWYQQKTGQSPKLLISGTSNRYTGVPDRFTGSGSGTDFTLTISNMQAEDLAVYYCLQYNYNPTFGAGTKLELKR |  |  |  |  | not RF Tlr9^−/− or BALB/c Tlr9^−/− B cells | failed to respond | stimulated BALB/c B cells more strongly than the rest; also recorded: induced both RF and non-Tg BALB/c B cells | comparable | induced both RF and non-Tg BALB/c B cells
